Experimental data taken from patent US20110191904A1.
Where two headings read alike, the source gives them in different places. Values belong to the molecule of their own block, whether it stands above or below them.

How the values were obtained:
Experiment in all cases: cell-based or functional assay
[1] = molecular target: T1, Arabidopsis FAD2 (At3g12120) (Arabidopsis thaliana) (UniProt P46313)
T1 sequence (looked up): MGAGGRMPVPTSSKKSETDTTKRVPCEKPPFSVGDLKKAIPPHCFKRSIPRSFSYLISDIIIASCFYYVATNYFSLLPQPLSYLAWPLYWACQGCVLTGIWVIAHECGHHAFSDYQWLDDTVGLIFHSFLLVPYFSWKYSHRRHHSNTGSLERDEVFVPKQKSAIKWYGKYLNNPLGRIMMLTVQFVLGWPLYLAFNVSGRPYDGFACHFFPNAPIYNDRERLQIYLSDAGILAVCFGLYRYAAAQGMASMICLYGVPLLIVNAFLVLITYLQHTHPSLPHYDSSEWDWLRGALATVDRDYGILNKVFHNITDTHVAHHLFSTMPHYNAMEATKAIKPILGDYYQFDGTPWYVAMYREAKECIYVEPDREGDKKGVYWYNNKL

[2] = molecular target: T2, Arabidopsis FAD3 (At2g29980) (Arabidopsis thaliana) (UniProt P48623)
T2 sequence (looked up): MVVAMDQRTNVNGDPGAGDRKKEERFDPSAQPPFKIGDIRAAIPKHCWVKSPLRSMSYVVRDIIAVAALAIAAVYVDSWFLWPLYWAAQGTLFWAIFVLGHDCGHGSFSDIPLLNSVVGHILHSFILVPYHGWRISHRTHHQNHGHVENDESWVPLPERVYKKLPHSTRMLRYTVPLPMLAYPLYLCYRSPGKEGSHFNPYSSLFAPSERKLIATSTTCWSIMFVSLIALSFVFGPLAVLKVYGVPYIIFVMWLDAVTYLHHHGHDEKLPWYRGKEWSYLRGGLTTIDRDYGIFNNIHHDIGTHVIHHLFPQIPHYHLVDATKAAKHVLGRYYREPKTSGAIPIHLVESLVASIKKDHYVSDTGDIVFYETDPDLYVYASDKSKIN

[3] = molecular target: T2, Arabidopsis FAD3 (At2g29980) (Arabidopsis thaliana); remark: listed apart in the source
[4] = molecular target: T1, Arabidopsis FAD2 (At3g12120) (Arabidopsis thaliana); remark: listed apart in the source

- 18:3 content of cb5 mutant yeast co-expressing both, 15 C, 18:2 fed (GC-FID) (mol percentage of total fatty acids) [3]: 3.8
- 18:3 content of cb5 mutant yeast co-expressing both, 28 C, 18:2 fed (GC-FID) (mol percentage of total fatty acids) [3]: 3.9
B1: soybean (Glycine max) cytochrome b5 GmCb5-C2 (protein)
chain: MGSKTKTFTFEEVAKHNHRKDCWIIVKGKVYDVTPFLDDHPGGDEVLVTATEKDATTDFEDIGHSDSATQMMEKYFVGEVDTNTLPAQVTSNNSVRQPTQAPPAYNNQSSGFVVKMLQYIVPLLILAFAFGLQYYGKKNKSTESEN

- 18:3 content of cb5 mutant yeast co-expressing both, 15 C, 18:2 fed (GC-FID) (mol percentage of total fatty acids) [3]: 2
- 18:3 content of cb5 mutant yeast co-expressing both, 28 C, 18:2 fed (GC-FID) (mol percentage of total fatty acids) [3]: 2.6
B3: soybean (Glycine max) cytochrome b5 GmCb5-C3 (protein)
chain: MASNPKTLTFEEVAKHNNKKDCWIIINGKVYDITPFLDEHPGGDEVLLTSTGKDATIDFEDVGHSDSAIEMMEKYFIGKVDTSTLPPKVSHSLPQPTQTHGAGNQSSGFVVKILQFLLPLLILGLAFALQYYGQKKHASTS

Second part, the molecule before the results:

Molecule: Arabidopsis cytochrome b5 Cb5-B (At5g48810) (from UniProt Q9ZWT2 1-140)
- 16:2 content of cb5 mutant yeast co-expressing both, 15 C (GC-FID) (mol percentage of total fatty acids) [1]: 1.3
- 16:2 content of cb5 mutant yeast co-expressing both, 28 C (GC-FID) (mol percentage of total fatty acids) [1]: 1.2
- 18:2 content of cb5 mutant yeast co-expressing both, 15 C (GC-FID) (mol percentage of total fatty acids) [1]: 7.4
- 18:2 content of cb5 mutant yeast co-expressing both, 28 C (GC-FID) (mol percentage of total fatty acids) [1]: 6
- 18:3 content of cb5 mutant yeast co-expressing both, 15 C, 18:2 fed (GC-FID) (mol percentage of total fatty acids) [2]: 11.8
- 18:3 content of cb5 mutant yeast co-expressing both, 28 C, 18:2 fed (GC-FID) (mol percentage of total fatty acids) [2]: 8.2

B2: Arabidopsis cytochrome b5 Cb5-E (At2g32720) (protein, Arabidopsis thaliana, UniProt O48845 1-134, looked up)
chain: MGDEAKIFTLSEVSEHNQAHDCWIVINGKVYNVTKFLEDHPGGDDVLLSSTGKDATDDFEDVGHSESAREMMEQYYVGEIDPTTIPKKVKYTPPKQPHYNQDKTSEFIIKLLQFLVPLAILGLAVGIRIYTKSG
- 18:3 content of cb5 mutant yeast co-expressing both, 15 C, 18:2 fed (GC-FID) (mol percentage of total fatty acids) [3]: 12.6
- 18:3 content of cb5 mutant yeast co-expressing both, 28 C, 18:2 fed (GC-FID) (mol percentage of total fatty acids) [3]: 8.2

B4: Arabidopsis cytochrome b5 Cb5-C (At2g46650) (protein, Arabidopsis thaliana, UniProt Q9ZNV4 1-132, looked up)
chain: MANLISFHDVAKHKCKNDCWILIHGKVYDISTFMDEHPGGDNVLLAVTGKDASIDFEDVNHSKDAKELMKKYCIGDVDQSTVPVTQQYIPPWEKESTAAETTKEESGKKLLIYLIPLLILGVAFALRFYNNK
- 16:2 content of cb5 mutant yeast co-expressing both, 15 C (GC-FID) (mol percentage of total fatty acids) [4]: 1.2
- 16:2 content of cb5 mutant yeast co-expressing both, 28 C (GC-FID) (mol percentage of total fatty acids) [4]: 0.9
- 18:2 content of cb5 mutant yeast co-expressing both, 15 C (GC-FID) (mol percentage of total fatty acids) [4]: 7.2
- 18:2 content of cb5 mutant yeast co-expressing both, 28 C (GC-FID) (mol percentage of total fatty acids) [4]: 6.4
